Measurements published in patent US20240002490A1 (SCHOLAR ROCK, published 2024).

Key:
[1] = target: T1, cynomolgus monkey promyostatin (cynomolgus monkey, UniProt Q95J86 19-375); experiment: cell-based or functional assay
rat promyostatin [2] = target: T2, rat promyostatin (rat, UniProt O35312 25-376); experiment: cell-based or functional assay
[3] = target: T1, cynomolgus monkey promyostatin; experiment: biolayer interferometry (ForteBio Octet QKe), apitegromab on human Fc capture tips, promyostatin in solution, 1:1 global fit, single concentration
Method: (§1) All baseline steps, loading of biotinylated antigens, and antibody association and dissociation steps were performed in 1× kinetics buffer containing PBS pH 74 with 0.002% Tween 20 and 0.01% BSA. Association proceeded for 300 seconds and dissociations were then performed in 1× kinetics buffer for at least 600 seconds. Data analysis was performed on FortèBio Data Analysis software version 8.2. A 1:1 global fitting model considering both association and dissociation was then utilized for the single concentration KD determination for each antigen antibody/construct pair.

rat promyostatin [4] = target: T2, rat promyostatin; experiment: as above
Method: as §1

B1: Apitegromab (antibody, human IgG4 S228P, lambda, V domains shown)
VH: QVQLVESGGGVVQPGRSLRLSCAASGFTFSSYGMHWVRQAPGKGLEWVAVISYDGSNKYYADSVKGRFTISRDNSKNTLYLQMNSLRAEDTAVYYCARDLLVRFLEWSHYYGMDVWGQGTTVTVSS
VL: not shown
notes: Fully human monoclonal IgG4/lambda; also called SRK-015; anti-pro/latent myostatin antibody
- IC50 of inhibition of proteolytic activation of promyostatin (SMAD-responsive luciferase reporter cells) [1]: 584 nM
- IC50 of inhibition of proteolytic activation of promyostatin (SMAD-responsive luciferase reporter cells) (rat promyostatin [2]): 153 nM
- Kd [3]: 4.86 nM
- Kd (rat promyostatin [4]): 2 nM
